Source: PMC3518626 (Current biology : CB, 2012)

Target: the molecule itself

B1: Kip2-EGFP (natural protein, yeast, UniProt P28743 1-706, looked up)
chain: MIQKMSPSLRRPSTRSSSGSSNIPQSPSVRSTSSFSNLTRNSIRSTSNSGSQSISASSTRSNSPLRSVSAKSDPFLHPGRIRIRRSDSINNNSRKNDTYTGSITVTIRPKPRSVGTSRDHVGLKSPRYSQPRSNSHHGSNTFVRDPWFITNDKTIVHEEIGEFKFDHVFASHCTNLEVYERTSKPMIDKLLMGFNATIFAYGMTGSGKTFTMSGNEQELGLIPLSVSYLFTNIMEQSMNGDKKFDVIISYLEIYNERIYDLLESGLEESGSRISTPSRLYMSKSNSNGLGVELKIRDDSQYGVKVIGLTERRCESSEELLRWIAVGDKSRKIGETDYNARSSRSHAIVLIRLTSTNVKNGTSRSSTLSLCDLAGSERATGQQERRKEGSFINKSLLALGTVISKLSADKMNSVGSNIPSPSASGSSSSSGNATNNGTSPSNHIPYRDSKLTRLLQPALSGDSIVTTICTVDTRNDAAAETMNTLRFASRAKNVALHVSKKSIISNGNNDGDKDRTIELLRRQLEEQRRMISELKNRSNIGEPLTKSSNESTYKDIKATGNDGDPNLALMRAENRVLKYKLENCEKLLDKDVVDLQDSEIMEIVEMLPFEVGTLLETKFQGLESQIRQYRKYTQKLEDKIMALEKSGHTAMSLTGCDGTEVIELQKMLERKDKMIEALQSAKRLRDRALKPLINTQQSPHPVVDNDK
stoichiometry N: 2
